Data published in US20150086557A1, “NOVEL INTEGRIN alpha9 beta1 LIGAND AND USES THEREOF” (OSAKA UNIVERSITY, priority 2012, published 2015).

Columns and labels:
integrin α9β1 = target: T1, integrin α9β1 (Homo sapiens, UniProt P05556+Q13797); test: Direct integrin binding assay with recombinant integrin α9β1
T1 construct: A cDNA encoding the extracellular region of human integrin α9; An expression vector for the extracellular region of integrin β1; ACID coiled-coil (Velcro) peptide; FLAG; BASE coiled-coil (Velcro) peptide; made in house; host or cells: FreeStyle 293 Expression System (293-F cells)
T1 sequence (Q13797 30-981 limits assumed): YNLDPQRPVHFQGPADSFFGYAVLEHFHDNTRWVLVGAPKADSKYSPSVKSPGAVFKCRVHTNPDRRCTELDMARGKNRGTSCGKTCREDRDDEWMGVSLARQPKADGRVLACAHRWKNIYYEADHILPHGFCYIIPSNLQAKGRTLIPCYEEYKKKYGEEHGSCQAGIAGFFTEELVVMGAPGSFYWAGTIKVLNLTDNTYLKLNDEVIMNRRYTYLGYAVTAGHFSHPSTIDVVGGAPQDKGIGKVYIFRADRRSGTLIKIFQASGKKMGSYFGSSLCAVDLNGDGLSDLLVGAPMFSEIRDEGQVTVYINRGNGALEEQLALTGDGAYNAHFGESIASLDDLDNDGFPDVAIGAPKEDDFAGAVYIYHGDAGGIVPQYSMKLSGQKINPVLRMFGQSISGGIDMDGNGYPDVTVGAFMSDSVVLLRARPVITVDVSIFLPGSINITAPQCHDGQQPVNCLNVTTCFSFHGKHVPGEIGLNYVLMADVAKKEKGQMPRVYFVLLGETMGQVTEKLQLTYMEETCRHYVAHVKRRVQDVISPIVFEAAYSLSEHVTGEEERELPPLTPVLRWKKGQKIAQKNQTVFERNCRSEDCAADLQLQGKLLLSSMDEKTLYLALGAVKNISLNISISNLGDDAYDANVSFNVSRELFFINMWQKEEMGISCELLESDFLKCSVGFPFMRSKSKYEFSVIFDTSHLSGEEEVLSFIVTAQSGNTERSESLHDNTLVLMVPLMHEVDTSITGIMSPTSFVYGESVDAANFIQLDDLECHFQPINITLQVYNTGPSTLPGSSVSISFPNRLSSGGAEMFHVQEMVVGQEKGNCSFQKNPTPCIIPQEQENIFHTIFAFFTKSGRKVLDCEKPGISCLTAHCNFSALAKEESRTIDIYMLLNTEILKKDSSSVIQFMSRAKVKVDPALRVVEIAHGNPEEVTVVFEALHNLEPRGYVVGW
T1 sequence (P05556 21-728 limits assumed): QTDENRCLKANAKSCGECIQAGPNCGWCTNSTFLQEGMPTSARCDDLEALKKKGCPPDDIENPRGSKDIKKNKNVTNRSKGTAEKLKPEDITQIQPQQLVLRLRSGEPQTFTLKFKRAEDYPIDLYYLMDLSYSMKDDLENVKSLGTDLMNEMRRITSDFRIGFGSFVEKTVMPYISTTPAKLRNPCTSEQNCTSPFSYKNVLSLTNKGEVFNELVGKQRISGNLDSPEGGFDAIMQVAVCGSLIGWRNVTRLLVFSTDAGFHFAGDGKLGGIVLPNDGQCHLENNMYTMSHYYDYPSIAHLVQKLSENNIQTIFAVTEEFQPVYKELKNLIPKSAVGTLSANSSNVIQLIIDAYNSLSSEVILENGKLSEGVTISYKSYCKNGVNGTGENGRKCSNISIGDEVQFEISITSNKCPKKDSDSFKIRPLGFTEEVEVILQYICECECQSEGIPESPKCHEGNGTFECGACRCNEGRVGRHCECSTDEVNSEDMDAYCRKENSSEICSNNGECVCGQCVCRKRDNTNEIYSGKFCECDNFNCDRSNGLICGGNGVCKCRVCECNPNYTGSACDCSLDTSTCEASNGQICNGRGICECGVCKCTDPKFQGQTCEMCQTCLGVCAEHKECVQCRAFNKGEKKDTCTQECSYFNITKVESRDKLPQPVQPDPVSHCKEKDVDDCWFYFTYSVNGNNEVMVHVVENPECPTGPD
Source text: A cDNA encoding the extracellular region of human integrin α9 was amplified by RT-PCR from total RNA extracted from RD cells and cloned into pBluescript KS(+). After verification of the nucleotide sequence, an error-free cDNA fragment was inserted into pcDNA-ACID-FLAG (Nishiuchi, R., Takagi, J., Hayashi, M., Ido, H., Yagi, Y., Sanzen, N., Tsuji, T., Yamada, M., and Sekiguchi, K. (2006) Matrix Biol. 25, 189-197). An expression vector for the extracellular region of integrin β1 was provided by Dr. Junichi Takagi (Takagi, J., Erickson, H. P., and Springer, T. A. (2001) Nat. Struct. Biol. 8, 412-416). The recombinant integrins were produced using the Freestyle™ 293 Expression System (Invitrogen) and purified as described in the above-mentioned publication Matrix Biol. 25, 189-197, (2006).
An integrin binding assay was performed as described in the above-mentioned publication Matrix Biol. 25, […], (2006). In some experiments, integrins were preincubated with synthetic peptides at various concentrations to evaluate the inhibitory activities of the synthetic peptides. The apparent dissociation constants were determined as described in Nishiuchi, R., Murayama, O., Fujiwara, H., Gu, J., Kawakami. T., Aimoto, S., Wada, Y., and Sekiguchi, K. (2003) J. Biochem, 134, 497-504.
To corroborate the role of integrin α9β1 as an adhesion receptor for polydom, a direct integrin binding assay was performed, using recombinant integrin α9β1. Plates were coated with full-length polydom, pol-N, pol-C, plasma fibronectin (pFN) or cellular fibronectin (cFN), and recombinant integrin α9β1 was added and allowed to bind thereto in the presence of 1 mM MnCl2 or 10 mM EDTA. BSA was used as a negative control. The bound integrin was quantified using a biotinylated anti-Velcro antibody and HRP-conjugated streptavidin.
Integrin α9β1 is known to bind to the third fibronectin type III domain of tenascin-C (TNfn3) and the osteopontin N-terminal half (OPN-Nhalf). These integrin α9β1 ligands were recombinantly expressed as GST fusion proteins and then purified. In the GST fusion proteins, the RGD cell-adhesive motifs were replaced with RAA to nullify their abilities to interact with RGD-binding integrins, such as those containing the αv subunit, Microtiter plates were coated with pol-C (10 nM), GST-TNfn3-RAA (100 nM) or GST-OPN-Nhalf-RAA (100 nM), and integrin α9β1 was added and allowed to bind thereto in the presence of 1 mM MnCl2.
To locate the integrin α9β1-binding site within polydom, a series of five N-terminal deletion mutants of polydom (pol-C, ΔEGF6, ΔPTX, ΔCCP20 and ΔCCP21; see FIG. 9) were constructed. Their binding activities for integrin α9β1 were evaluated in the presence of 1 mM MnCl2 or 10 mM EDTA using microtiter plates coated with these recombinant proteins (10 nM).
Among the 34 CCP domains within polydom, CCP21 is unique because it contains about 40 extra amino acids as compared with the other CCP domains. An assay to examine whether this extra region (hereinafter referred to as “extra segment”) within CCP21 is involved in binding to integrin α9β1 was performed, Microtiter plates were coated with a GST-CCP21 fusion protein, a D2628-S2664 deletion mutant of the GST-CCP21 fusion protein (CCP21ΔD2628-S2664), D2628-S2664 alone (see FIG. 11), pol-C or GST alone, and integrin α9β1 was added and allowed to bind thereto in the presence of 1 mM MnCl2 or 10 mM EDTA.
To further narrow down the region responsible for binding to integrin α9β1, the extra 37-amino acid segment of CCP21 was divided into smaller segments, of which GST fusion proteins were produced. Microtiter plates were coated with eight kinds of segments including CCP21, pol-C and GST alone, and integrin α9β1 was added and allowed to bind thereto in the presence of 1 mM MnCl2 or 10 mM EDTA.
To identify the residues involved in binding to Integrin α9β1, alanine scanning mutants and N-terminal or C-terminal deletion mutants of D2634-L2645 were produced as GST fusion proteins. […]

cardiac stem cells = test: Cell adhesion assay using GFP label-retaining cells (cardiac stem cells); type: cell-based, mouse; conditions: 100 nM coating, FIG. 25
Source text: Tissue stem cells are known to generally have a very prolonged, cell cycle and thus allow labeling compounds incorporated into DNA and the cell interior to remain stable for a long period of time without decay along with cell division, This nature can be advantageously used to identify and separate tissue stem cells by short-term labeling or cells with a nucleotide analog such as bromodeoxyuridine (BrdU) or a fusion protein of green fluorescent protein (hereinafter referred to as “GFP”) and a nucleoprotein, histone, followed by selection of cells retaining the label for a long period of time (label-retaining cells). In this experiment, with the use of a tetracycline-inducible expression system in combination with the ROSA26 promoter, a fusion protein of GFP and histone H2B (H2B-GFP) was expressed in the heart of a mouse for 2 weeks starting 1 week before birth, and 6 weeks later, cardiac stem cells were separated as GFP label-retaining cells from the heart.
To explore whether polydom serves as a scaffold for integrin α9β1-expressing cardiac stem cells, cardiac stem cells were separated as GFP label-retaining cells and subjected to a cell adhesion assay. A 96-well immuno plate (Nunc Maxisorp) was coated with 50 μl/well of 100 nM polydom or fibronectin at 4° C. overnight, GFP label-retaining cells were collected by FACSAria and suspended at 1×10^6 cells/ml in serum-free Iscove's Modified Dulbecco Medium (hereinafter referred to as “IMDM”). The cell suspension was plated at 100 μl/well and cultured in a 5% CO2 incubator at 37° C. for 12 hours. After three washes with PBS, the cells were fixed with 100 μl/well of 3.7% formalin for 15 minutes. Then, the cells were incubated with 0.5% toluidine blue (150 μl/well) for 10 minutes and washed with MilliQ water. After drying, the number of attached cells was counted under a microscope.

With “polydom: recombinant mouse SVEP1 (SEQ ID NO: 2), ECM protein, ligand for integrin α9β1” the “binding of recombinant integrin α9β1 to coated protein” value (integrin α9β1; 1 mM MnCl2, FIG. 7) was “bound”, the “binding of recombinant integrin α9β1 in the presence of EDTA” value (integrin α9β1; 10 mM EDTA, FIG. 7) was “completely abrogated” and the “adhesion of cardiac stem cells to coated plate” value (cardiac stem cells; 12 hours, serum-free IMDM) was “a large number of the cells adhered”. For the same substance, the “cell adhesion activity for cardiac stem cells compared with fibronectin” value (cardiac stem cells) was “equivalent or superior to fibronectin”.
